According to patent publication US20210024652A1:

Target: plasma membrane calcium ATPase PMCA4b, P23634
Assay: cell-based or functional assay

Chain of plasma membrane calcium ATPase PMCA4b, P23634 (P23634 whole entry): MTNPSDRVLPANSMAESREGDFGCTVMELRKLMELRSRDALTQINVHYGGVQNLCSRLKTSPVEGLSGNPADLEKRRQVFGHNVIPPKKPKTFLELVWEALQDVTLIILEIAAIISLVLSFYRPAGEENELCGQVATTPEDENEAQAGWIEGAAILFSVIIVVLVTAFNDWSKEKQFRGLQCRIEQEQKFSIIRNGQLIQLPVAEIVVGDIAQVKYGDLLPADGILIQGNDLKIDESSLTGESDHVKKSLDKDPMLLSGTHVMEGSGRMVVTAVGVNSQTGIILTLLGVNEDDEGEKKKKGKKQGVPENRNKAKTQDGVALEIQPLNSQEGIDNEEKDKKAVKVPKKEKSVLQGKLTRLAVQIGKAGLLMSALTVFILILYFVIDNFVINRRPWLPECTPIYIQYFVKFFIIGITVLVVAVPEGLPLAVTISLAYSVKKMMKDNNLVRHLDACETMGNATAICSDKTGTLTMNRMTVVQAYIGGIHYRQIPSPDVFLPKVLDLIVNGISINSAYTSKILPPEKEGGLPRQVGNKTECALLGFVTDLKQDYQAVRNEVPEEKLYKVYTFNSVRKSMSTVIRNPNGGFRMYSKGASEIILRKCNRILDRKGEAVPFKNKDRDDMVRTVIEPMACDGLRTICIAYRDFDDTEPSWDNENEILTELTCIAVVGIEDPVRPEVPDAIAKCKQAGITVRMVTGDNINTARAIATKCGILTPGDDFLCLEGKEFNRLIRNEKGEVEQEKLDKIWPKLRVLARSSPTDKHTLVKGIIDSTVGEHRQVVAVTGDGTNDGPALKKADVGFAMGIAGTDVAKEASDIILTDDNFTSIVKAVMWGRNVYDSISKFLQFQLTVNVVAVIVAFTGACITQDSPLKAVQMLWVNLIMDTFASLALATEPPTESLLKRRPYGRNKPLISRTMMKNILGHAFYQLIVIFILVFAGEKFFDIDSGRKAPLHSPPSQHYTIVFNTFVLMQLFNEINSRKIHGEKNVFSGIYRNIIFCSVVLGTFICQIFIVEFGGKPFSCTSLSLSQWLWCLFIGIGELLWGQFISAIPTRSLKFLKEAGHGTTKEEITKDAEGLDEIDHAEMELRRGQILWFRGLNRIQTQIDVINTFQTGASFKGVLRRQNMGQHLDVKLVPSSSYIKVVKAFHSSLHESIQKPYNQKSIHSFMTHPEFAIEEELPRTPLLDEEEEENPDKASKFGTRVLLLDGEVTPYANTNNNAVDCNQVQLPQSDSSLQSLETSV

Which decrease in RNLS dependent ERK phosphorylation in MiaPaCa2 cells after PMCA4b siRNA, western blot does the source give for CIRFVSIDNKKRNIESSEIG [RNLS peptide RP-220] here?
Its decrease in RNLS dependent ERK phosphorylation in MiaPaCa2 cells after PMCA4b siRNA, western blot is 70%.
